Test results reported in patent US8709741B2, “Methods of diagnosing a plasmodium infection” (priority 2009, dated 2014).

Columns and labels:
[1] = tested on: P. falciparum-infected erythrocytes; experiment: Hydrolysis of serum-derived and Albumax II-derived parasite cultures (NEFA); format: cell-based, human; conditions: 50 nM, 6 h, schizont-enriched culture
Description: Parasites were grown in medium containing either 8% human serum (iRBC/S) or 0.5% Albumax II® (iRBC/A). Cultures were semi-synchronized so that they contain mainly mature parasites at the time of the experiment. Both cultures (2.5-3% parasitaemia) were then washed and cells were re-suspended at 50% haematocrit in RPMI 0.05% BSA with or without 50 nM of recombinant GX sPLA2, and incubated for 6 h in culture conditions. Non-infected RBCs (red blood cells) and human serum were processed similarly. Cell supernatants and serum were frozen at −20° C.; erythrocyte ghosts were prepared and frozen. NEFAs in each sample were measured in duplicate upon thawing, using the NEFA-C kit (WAKO). NEFA amount in healthy RBCs (RBC) and in infected cultures (iRBC) is expressed as the sum of NEFAs from paired ghosts and supernatants. Values are the mean of the duplicate measurement, subtracted for values in the absence of enzyme. The experiment was repeated twice and gave similar qualitative results. Results from one experiment are shown;
Parasites were grown for several cycles in culture medium supplemented either with 8% human serum or with 0.5% Albumax II®. Cultures were semi-synchronized by Sorbitol treatment 2-3 days prior to the experiment. […] NEFAs were measured using the NEFA-C kit (WAKO). […]

[2] = 48 h-hydrolysis of plasma by sPLA2s at IC50 concentrations (NEFA); format: biochemical, human; conditions: GX 3 nM, GIIF full length or truncated 15 nM, bee venom 15 pM; 37° C.
Description: Crude human plasma was incubated with 3 nM of recombinant human GX sPLA2 (⋄), 15 nM of the full length (▪) or truncated (□) recombinant human GIIF sPLA2, and 15 pM of the bee venom sPLA2 (♦), for 48 h at 37° C. Aliquots were taken at times 0 h, 6 h, 22 h, 30 h and 48 h of incubation. NEFAs in each aliquot were measured using the NEFA-C kit (WAKO);
Crude human plasma was incubated with 3 nM of recombinant human GX sPLA2, 15 nM of the full length or the truncated form (IIFΔC) of recombinant human GIIF sPLA2, and 15 pM of the bee venom sPLA2, for 48 h at 37° C. Aliquots (7 μL) were taken at times 0 h, 6 h, 22 h, 30 h and 48 h of incubation. NEFAs were measured in each aliquot by using the NEFA-C kit (WAKO). Experiment was repeated twice with different plasmas.

[3] = tested on: P. falciparum-infected erythrocytes; experiment: GX sPLA2 lipolysis of infected red blood cells, young and mature stages (NEFA); format: cell-based, human; conditions: no serum, 5 h at 37° C.
Description: A semi-synchronous culture of P. falciparum (2.5% parasitaemia) was analysed for sensitivity to GX sPLA2 at early and late development stages. Parasitaemia and stage distribution were determined from Diff-Quick-stained smears. Early stages were processed at t 0 h and late stages were processed 24 h later (t 24 h). Cultures were washed and cells were re-suspended at 50% haematocrit in RPMI 0.05% BSA, and then distributed into wells of a 96-well microplate in the presence or absence of respectively 30.0 nM of GX sPLA2 and 0.2 nM of bee venom sPLA2. Non-infected erythrocytes and human serum were processed similarly, after all samples had been adjusted for same phosphatidylcholine (PC) content. […] NEFAs in each sample were measured in triplicate using the NEFA-C kit (WAKO). […]
A parasite culture was enriched in young parasite stages (rings+early trophozoites) by sorbitol treatment. Parasitaemia (2.5-3%) and stage distribution were determined from Diff-Quick staining of culture smears. […] NEFAs in erythrocyte samples are expressed as the sum of NEFAs from ghosts and corresponding supernatant.
The membranolytic activity of the recombinant GX sPLA2 on RBCs infected by either young (ring/young trophozoite) or mature (late trophozoite/schizont) parasites was analysed. […] Parasite cultures were incubated with GX sPLA2 in the absence of serum for 5 h and NEFA production was measured thereafter. […]

B1: X: recombinant human group X secreted phospholipase A2 (protein, UniProt O15496 43-165, looked up)
Group 10 secretory …: GILELAGTVGCVGPRTPIAYMKYGCFCGLGGHGQPRDAIDWCCHGHDCCYTRAEEAGCSPKTERYSWQCVNQSVLCGPAENKCQELLCKCDQEIANCLAQTEYNLKYLFYPQFLCEPDSPKCD
[1]
  NEFA release from Albumax II-derived versus serum-derived parasite culture: released at the same rate
[2]
  hydrolysis of plasma over 48 h: the most active
[3]; 30 nM
  membranolytic activity on healthy (non-infected) erythrocytes: left intact
[3]; GX 30 nM, bee venom 0.2 nM
  membranolytic activity on parasite culture erythrocytes (NEFA release, words): induced the release of NEFAs from the parasite culture with predominance for the schizont stages
